The text below walks through data of patent US5731183.

The target in test [1] is dimethylcasein.
Test [2] concerns the target dimethylcasein. This is another data set of the same source.
Test [3] has as its target dimethylcasein. This is another data set of the same source.

On to “Bacillus subtilis AJ12866-derived transglutaminase (enzyme)”, for which the Relative Activity (14C-putrescine bonded to dimethylcasein, 37° C., 30 minutes) (relative activity) with dimethylcasein [1] stood at 10200.

“fused protein of an 11-residue lacZ-derived peptide and the Bacillus-derived TG, expressed from pBSTG75-11 in Escherichia coli JM109 (enzyme)”: the TG activity (dpm) (14C-putrescine caught by dimethylcasein) with dimethylcasein [2] came to 496 dpm.

B1: Bacillus subtilis AJ1307-derived transglutaminase (enzyme)
chain: MIIVSGQLLRPQDIENWQIDQNLNPLLKEMIETPVQFDYHSIAELMFELKLRMNIVAAAKTLHKSGAKFATFLKTYGNTTYWRVSPEGALELKYRMPPSKAIRDIAENGPFYAFECATAIVIIYYLALIDTIGEDKFNASFDRIILYDWHYEKLPIYTETGHHFFLGDCLYFKNPEFDPQKAQWRGENVILLGEDKYFAHGLGILNGKQIIDKLNSFRKKGALQSAYLLSQATRLDVPSLFR
In the test with dimethylcasein [3], B1 registered a relative TG activity (14C-putrescine bonded to dimethylcasein, 37° C., pH 7.5) (dpm/mg/30 min) of 25000.
